Laboratory results published in publication doi:10.1101/2020.01.26.920348.
Values belong to the substance of their own block, whether it stands above or below them.

Assays:
Assay in all cases: FRET or BRET
[1] = molecular target: YFP-preIQ3-IQD-PCRDC (not stated (human or rat cDNA cloned) | human)
[2] = molecular target: YFP-preIQ3-IQD-PCRDS (not stated (human or rat cDNA cloned) | mouse)
[3] = molecular target: YFP-preIQ3-IQD-PCRDD (not stated (human or rat cDNA cloned)) (UniProt Q01668)
Chain of UniProt Q01668 (Q01668 whole entry): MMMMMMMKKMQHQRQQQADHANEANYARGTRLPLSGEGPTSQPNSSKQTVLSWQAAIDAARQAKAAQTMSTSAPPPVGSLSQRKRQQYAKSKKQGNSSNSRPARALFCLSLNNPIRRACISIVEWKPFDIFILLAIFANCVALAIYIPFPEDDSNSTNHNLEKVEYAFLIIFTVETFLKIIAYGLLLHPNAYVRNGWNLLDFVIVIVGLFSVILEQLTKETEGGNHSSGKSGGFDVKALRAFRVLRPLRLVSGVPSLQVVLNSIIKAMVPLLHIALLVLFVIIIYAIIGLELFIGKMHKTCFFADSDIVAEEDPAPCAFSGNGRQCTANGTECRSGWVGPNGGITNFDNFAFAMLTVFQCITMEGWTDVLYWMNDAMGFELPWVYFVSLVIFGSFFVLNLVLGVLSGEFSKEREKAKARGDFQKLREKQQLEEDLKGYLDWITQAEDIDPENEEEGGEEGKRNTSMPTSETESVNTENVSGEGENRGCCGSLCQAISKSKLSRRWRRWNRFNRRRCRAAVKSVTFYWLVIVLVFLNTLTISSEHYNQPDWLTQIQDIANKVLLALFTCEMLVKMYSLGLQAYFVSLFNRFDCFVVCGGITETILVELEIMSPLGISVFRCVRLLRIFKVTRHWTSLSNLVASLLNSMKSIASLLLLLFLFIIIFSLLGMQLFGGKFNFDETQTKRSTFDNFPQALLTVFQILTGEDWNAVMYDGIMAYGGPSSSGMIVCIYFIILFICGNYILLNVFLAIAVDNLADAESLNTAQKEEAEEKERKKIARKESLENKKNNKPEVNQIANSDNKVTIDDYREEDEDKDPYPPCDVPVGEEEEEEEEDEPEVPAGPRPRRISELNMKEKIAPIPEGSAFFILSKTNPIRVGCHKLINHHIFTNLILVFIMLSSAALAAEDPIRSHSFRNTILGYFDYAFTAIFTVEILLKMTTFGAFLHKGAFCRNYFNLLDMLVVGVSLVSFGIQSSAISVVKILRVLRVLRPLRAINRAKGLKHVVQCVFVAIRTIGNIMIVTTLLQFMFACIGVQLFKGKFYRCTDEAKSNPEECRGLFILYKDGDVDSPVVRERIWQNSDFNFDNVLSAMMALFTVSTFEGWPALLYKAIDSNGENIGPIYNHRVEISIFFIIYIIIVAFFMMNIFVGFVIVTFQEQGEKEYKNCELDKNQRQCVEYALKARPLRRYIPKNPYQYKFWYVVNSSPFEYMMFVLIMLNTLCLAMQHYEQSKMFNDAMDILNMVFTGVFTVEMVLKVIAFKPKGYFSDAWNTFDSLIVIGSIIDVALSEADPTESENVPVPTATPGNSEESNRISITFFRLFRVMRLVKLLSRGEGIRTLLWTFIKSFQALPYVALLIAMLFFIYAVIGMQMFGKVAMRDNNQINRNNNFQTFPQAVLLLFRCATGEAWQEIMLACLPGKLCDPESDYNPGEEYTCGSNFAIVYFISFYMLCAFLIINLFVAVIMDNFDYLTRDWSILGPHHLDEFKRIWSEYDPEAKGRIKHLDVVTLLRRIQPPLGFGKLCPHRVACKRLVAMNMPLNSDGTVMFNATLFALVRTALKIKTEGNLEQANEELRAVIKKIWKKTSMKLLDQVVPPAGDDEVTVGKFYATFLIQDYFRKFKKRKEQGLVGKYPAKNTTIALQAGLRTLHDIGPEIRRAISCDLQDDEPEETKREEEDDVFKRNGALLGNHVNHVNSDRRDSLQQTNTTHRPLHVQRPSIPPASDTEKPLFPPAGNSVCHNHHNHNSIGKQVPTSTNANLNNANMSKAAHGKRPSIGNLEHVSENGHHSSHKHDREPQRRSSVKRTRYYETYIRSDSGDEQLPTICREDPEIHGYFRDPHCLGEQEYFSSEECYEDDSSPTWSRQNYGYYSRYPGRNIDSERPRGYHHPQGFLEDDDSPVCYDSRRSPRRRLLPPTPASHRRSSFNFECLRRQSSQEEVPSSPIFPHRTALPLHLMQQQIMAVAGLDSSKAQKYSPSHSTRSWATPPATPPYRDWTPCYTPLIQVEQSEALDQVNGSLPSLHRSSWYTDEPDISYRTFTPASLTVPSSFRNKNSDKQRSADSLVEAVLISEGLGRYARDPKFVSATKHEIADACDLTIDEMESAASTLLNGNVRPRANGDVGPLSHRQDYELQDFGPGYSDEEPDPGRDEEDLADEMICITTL

- relative Kd (normalised to Kd of PD/DF) [1]: 11.2
Substance: CFP-DCRDC (distal C-terminal regulatory domain of CaV1.2) (from UniProt Q13936 1-2221) (domain or fragment)

- relative Kd (normalised to Kd of PD/DF) [2]: 18.7
Substance: CFP-DCRDS (distal C-terminal regulatory domain of CaV1.1) (from UniProt Q02789 1-1852) (domain or fragment)

- relative Kd (normalised to Kd of PD/DF) [3]: 2.3
Substance: PCRDC-DCRDF peptide (PCRD of CaV1.2 joined to DCRD of CaV1.4)
